± gives the uncertainty stated by the source.
Experiment: self-splicing fitness, log relative to wild type (ln ratio); higher = more splicing; Tetrahymena group I intron in knt gene, E. coli kanamycin selection, DiMSum; sequences stand for … in CUCUCU…GGAGGGAAAAGUUAUCAGGCAUGCACCUGGUAGCUAGUCUUUAAACCAAUAGAUUGCAUCGGUUUAAAAGGCAAGACCGUCAAAUUGCGGGAAAGGGGUCAACAGCCGUUCAGUACCAAGUCUCAGGGGAAACUUUGAGAUGGCCUUGCAAAGGGUAUGGUAAUAAGCUGACGGACAUGGUCCUAACCACGCAGCCAAGUCCUAAGUCAACAGAUCUUCUGUUGAUAUGGAUGCAGUUCACAGACUAAAUGUCGGUCGGGGAAGAUGUAUUCUUCUCAUAAGAUAUAGUCGGACCUCUCCUUAAUGGGAGCUAGCGGAUGAAGUGAUGCAACACUGGAGCCGCUGGGAACUAAUUUGUAUGCGAAAGUAUAUUGAUUAGUUUUGGAGUACUCGUGGUCG
Procedure, shortened: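 Fitness was computed with DiMSum as the error-weighted combination of replicate fold changes, kanamycin versus none, each normalised to wild type. The library randomised all eight intron nucleotides of the P1ex region, with the intron placed in the knt kanamycin-resistance gene on pET-22b(+) in E. coli BL21(DE3). Six replicate transformations were grown overnight at 37°C or 30°C on LB agar with or without 25 μg/mL kanamycin, plus 100 μg/mL carbenicillin, 50 μM IPTG and 0.2% rhamnose. Pooled colonies were amplicon-sequenced on an Illumina HiSeq 2500.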

| Sequence | self-splicing fitness (ln) (30 °C) | self-splicing fitness (ln) (37 °C) |
| --- | --- | --- |
| UUGCAGCAAUAUUACGACUG | -2.52 ± 0.19 | -1.72 ± 0.2 |
| UUGCAGCAAUAUUACGAUAA | -0.501 ± 0.11 | 0.0102 ± 0.12 |
| UUGCAGCAAUAUUACGAUUA | -0.176 ± 0.12 | 0.339 ± 0.087 |
| UUGCAGCAAUAUUACGCAAC | – | -2.11 ± 0.22 |
| UUGCAGCAAUAUUACGCAGC | -2.41 ± 0.41 | -1.83 ± 0.3 |
| UUGCAGCAAUAUUACGCCUA | -0.384 ± 0.084 | 0.346 ± 0.11 |
| UUGCAGCAAUAUUACGCCUG | -2.63 ± 0.15 | -1.6 ± 0.19 |
| UUGCAGCAAUAUUACGCGGC | – | -2.28 ± 0.46 |
| UUGCAGCAAUAUUACGCUCA | -0.833 ± 0.18 | -0.278 ± 0.17 |
| UUGCAGCAAUAUUACGGACA | -0.355 ± 0.074 | -0.669 ± 0.091 |
| UUGCAGCAAUAUUACGGCUC | -0.757 ± 0.094 | -0.29 ± 0.14 |
| UUGCAGCAAUAUUACGGCUU | 0.193 ± 0.069 | 0.35 ± 0.095 |
| UUGCAGCAAUAUUACGGGAG | -1.53 ± 0.11 | -1.58 ± 0.13 |
| UUGCAGCAAUAUUACGUGAC | -1.55 ± 0.11 | -0.799 ± 0.13 |
| UUGCAGCAAUAUUACGUGGC | – | -2.93 ± 0.32 |
| UUGCAGCAAUAUUACGUUAA | -1.55 ± 0.1 | -0.515 ± 0.089 |
| UUGGAGCAAUAUUACGAGCG | -2.64 ± 0.3 | -0.508 ± 0.32 |
| UUGGAGCAAUAUUACGAGUU | -4.04 ± 0.26 | -3.45 ± 0.34 |
| UUGGAGCAAUAUUACGAUAA | -2.08 ± 0.26 | 0.881 ± 0.28 |
| UUGGAGCAAUAUUACGAUUA | -0.16 ± 0.41 | -1.3 ± 0.39 |
| UUGGAGCAAUAUUACGAUUU | -3.2 ± 0.21 | -2.86 ± 0.29 |
| UUGGAGCAAUAUUACGCAAA | -2.95 ± 0.44 | -2.54 ± 0.41 |
| UUGGAGCAAUAUUACGCUUU | -2.75 ± 0.23 | -2.3 ± 0.5 |
| UUGGAGCAAUAUUACGGCGU | – | -2.29 ± 0.35 |
| UUGGAGCAAUAUUACGGGAG | -4.02 ± 0.39 | -2.62 ± 0.31 |

| Sequence | self-splicing fitness (ln) (30 °C) | self-splicing fitness (ln) (37 °C) |
| --- | --- | --- |
| UUGGAGCAAUAUUACGGGCA | – | -1.45 ± 0.35 |
| UUGGAGCAAUAUUACGGGUC | -3.74 ± 0.34 | – |
| UUGGAGCAAUAUUACGUAAG | -2.23 ± 0.26 | -0.995 ± 0.24 |
| UUGGAGCAAUAUUACGUCUC | -2.96 ± 0.33 | -2.41 ± 0.33 |
| UUGGAGCAAUAUUACGUGAA | -2.62 ± 0.21 | -1.27 ± 0.2 |
| UUGGAGCAAUAUUACGUGCG | -1.73 ± 0.28 | -0.739 ± 0.21 |
| UUGGAGCAAUAUUACGUUCG | -2.23 ± 0.16 | -0.989 ± 0.17 |
| UUGGAGCAAUAUUACGUUUC | -3.77 ± 0.43 | -3.44 ± 0.42 |
| UUGUAGCAAUAUUACGACAA | -0.0967 ± 0.15 | -0.283 ± 0.15 |
| UUGUAGCAAUAUUACGACGC | -2.8 ± 0.44 | -0.663 ± 0.36 |
| UUGUAGCAAUAUUACGCACU | 0.662 ± 0.21 | 0.253 ± 0.19 |
| UUGUAGCAAUAUUACGCGCA | -0.824 ± 0.17 | 0.43 ± 0.19 |
| UUGUAGCAAUAUUACGCUGG | -1.38 ± 0.15 | -1.77 ± 0.23 |
| UUGUAGCAAUAUUACGGUAG | -0.909 ± 0.18 | -0.181 ± 0.2 |
| UUGUAGCAAUAUUACGUCGC | -3.54 ± 0.46 | – |
| UUGUAGCAAUAUUACGUCUU | -0.945 ± 0.16 | -0.491 ± 0.19 |
| UUGUAGCAAUAUUACGUGCU | -3.17 ± 0.27 | -1.54 ± 0.21 |
| UUGUAGCAAUAUUACGUGGC | – | -2.15 ± 0.47 |
| UUUAAGCAAUAUUACGAAGC | -1.88 ± 0.32 | -0.328 ± 0.42 |
| UUUAAGCAAUAUUACGAUGC | -1.41 ± 0.37 | – |
| UUUAAGCAAUAUUACGCAAA | -1.59 ± 0.38 | -0.938 ± 0.28 |
| UUUAAGCAAUAUUACGCACU | -0.382 ± 0.1 | -0.128 ± 0.12 |
| UUUAAGCAAUAUUACGCCCA | 0.412 ± 0.32 | 0.619 ± 0.37 |
| UUUAAGCAAUAUUACGCGGU | -3.46 ± 0.26 | -1.85 ± 0.23 |
| UUUAAGCAAUAUUACGGAUG | -1.56 ± 0.1 | -0.852 ± 0.13 |

| Sequence | self-splicing fitness (ln) (30 °C) | self-splicing fitness (ln) (37 °C) |
| --- | --- | --- |
| UUUAAGCAAUAUUACGGCCC | 0.344 ± 0.32 | – |
| UUUAAGCAAUAUUACGGGGU | -3.7 ± 0.22 | -1.7 ± 0.19 |
| UUUAAGCAAUAUUACGGGUA | -2.25 ± 0.13 | -0.422 ± 0.11 |
| UUUAAGCAAUAUUACGGGUC | -3.19 ± 0.35 | -2.25 ± 0.35 |
| UUUAAGCAAUAUUACGUGAA | -0.503 ± 0.093 | -0.616 ± 0.095 |
| UUUAAGCAAUAUUACGUGGU | -2.88 ± 0.16 | -2.62 ± 0.21 |
| UUUAAGCAAUAUUACGUGUG | -1.24 ± 0.096 | -0.602 ± 0.093 |
| UUUCAGCAAUAUUACGAAAA | -1.02 ± 0.15 | -0.793 ± 0.15 |
| UUUCAGCAAUAUUACGAACG | -0.381 ± 0.11 | 0.41 ± 0.14 |
| UUUCAGCAAUAUUACGAAUC | -1.94 ± 0.18 | -1.31 ± 0.24 |
| UUUCAGCAAUAUUACGACGA | -0.00347 ± 0.1 | 0.236 ± 0.12 |
| UUUCAGCAAUAUUACGCACG | -1.05 ± 0.12 | -0.0521 ± 0.13 |
| UUUCAGCAAUAUUACGCCCA | -1.19 ± 0.22 | -0.699 ± 0.22 |
| UUUCAGCAAUAUUACGCCCG | -0.734 ± 0.22 | 0.939 ± 0.3 |
| UUUCAGCAAUAUUACGCCUU | -1.58 ± 0.2 | -0.883 ± 0.2 |
| UUUCAGCAAUAUUACGCGGA | -2.2 ± 0.14 | -1.54 ± 0.15 |
| UUUCAGCAAUAUUACGCUCU | -1.2 ± 0.093 | -0.182 ± 0.11 |
| UUUCAGCAAUAUUACGGCUG | -4.1 ± 0.46 | -1.84 ± 0.27 |
| UUUCAGCAAUAUUACGGGCC | -4.27 ± 0.46 | -2.37 ± 0.37 |
| UUUCAGCAAUAUUACGGGCG | -1.02 ± 0.098 | 0.331 ± 0.14 |
| UUUCAGCAAUAUUACGGGUU | -3.19 ± 0.24 | -2.13 ± 0.18 |
| UUUCAGCAAUAUUACGGUAA | -0.255 ± 0.1 | -0.168 ± 0.084 |
| UUUCAGCAAUAUUACGUAAA | -0.728 ± 0.089 | -0.608 ± 0.11 |
| UUUCAGCAAUAUUACGUACC | -3.51 ± 0.25 | -2.14 ± 0.17 |
| UUUCAGCAAUAUUACGUAGA | -1.72 ± 0.076 | -0.283 ± 0.092 |

| Sequence | self-splicing fitness (ln) (30 °C) | self-splicing fitness (ln) (37 °C) |
| --- | --- | --- |
| UUUCAGCAAUAUUACGUAUC | -1.71 ± 0.14 | -1.5 ± 0.14 |
| UUUCAGCAAUAUUACGUAUU | -2.08 ± 0.13 | -1.39 ± 0.13 |
| UUUCAGCAAUAUUACGUCGC | -3.67 ± 0.2 | -2.73 ± 0.24 |
| UUUCAGCAAUAUUACGUCGG | -1.51 ± 0.1 | -1.17 ± 0.14 |
| UUUCAGCAAUAUUACGUCUA | -0.33 ± 0.077 | 0.101 ± 0.079 |
| UUUCAGCAAUAUUACGUGAG | -0.129 ± 0.054 | -0.623 ± 0.07 |
| UUUCAGCAAUAUUACGUGCU | -3.47 ± 0.32 | -2 ± 0.24 |
| UUUGAGCAAUAUUACGAACG | – | -0.865 ± 0.26 |
| UUUGAGCAAUAUUACGACAU | -3.673 ± 0.034 | -2.43 ± 0.043 |
| UUUGAGCAAUAUUACGAGUA | – | -1.86 ± 0.21 |
| UUUGAGCAAUAUUACGCUUA | -3.38 ± 0.36 | -2.07 ± 0.23 |
| UUUGAGCAAUAUUACGGAAA | -2.01 ± 0.21 | -1.95 ± 0.24 |
| UUUGAGCAAUAUUACGGCGA | -1.09 ± 0.18 | -0.162 ± 0.19 |
| UUUGAGCAAUAUUACGGCUC | -2.38 ± 0.42 | -1.39 ± 0.46 |
| UUUGAGCAAUAUUACGGGAA | -2.02 ± 0.39 | -2.22 ± 0.32 |
| UUUGAGCAAUAUUACGGGAU | -2.91 ± 0.2 | -3.24 ± 0.32 |
| UUUGAGCAAUAUUACGUACG | -1.49 ± 0.32 | -0.599 ± 0.35 |
| UUUGAGCAAUAUUACGUCAG | -3.43 ± 0.2 | -1.46 ± 0.27 |
| UUUGAGCAAUAUUACGUCGU | -3.91 ± 0.34 | -3.09 ± 0.24 |
| UUUGAGCAAUAUUACGUGAU | -2.95 ± 0.33 | – |
| UUUUAGCAAUAUUACGACGA | -0.357 ± 0.14 | 0.422 ± 0.19 |
| UUUUAGCAAUAUUACGACGU | -2.06 ± 0.25 | -1.24 ± 0.22 |
| UUUUAGCAAUAUUACGAGCA | -1.72 ± 0.15 | -0.97 ± 0.16 |
| UUUUAGCAAUAUUACGAUUG | -1.52 ± 0.14 | -0.255 ± 0.16 |

Source: the supplement of paper PMC7877785
